{
  "source": "patent US20080138837A1",
  "about": "“Methods and kits for detecting and measuring ADAMTS13/FXI complexes” (priority 2004, published 2008)",
  "key": {"platelet ADAMTS13 [1]": {"test_system": "platelet ADAMTS13", "assay": "Enhancement of platelet ADAMTS13 activity by treatment with FXIa", "assay_type": "biochemical, human", "conditions": "0.3 ng/ml FXIa, FIG. 11", "experimental": "Washed normal platelets from 200 μL of PRP were resuspended in 1 ml of assay buffer. Washed platelets from 1 ml of PRP from a subject with acquired TTP were resuspended in 50 μL of assay buffer. Normal or TTP platelets (10 μl) were added to 10 mM Tris-HCl pH 8.0 assay buffer (80 μl) or assay buffer containing 0.3 ng/ml of FXIa (80 μl). LVY-AMC substrate (10 μl of 2 mM) was added and the fluorescence was monitored (Ex 360 nm/Em 440 nm) for 1500 seconds. FXIa at 0.3 ng/ml was used as a control."}, "ADAMTS13": {"test_system": "ADAMTS13", "assay": "ADAMTS13 activity in PRP using peptidyl substrates", "assay_type": "biochemical, human", "conditions": "normal PRP 20 μl, 0.8 mM substrate, 37° C., 10 mM Tris-HCl pH 8.0, Ex 360 nm/Em 460 nm, FIG. 3", "experimental": "Blood was collected by venopuncture into collection tubes containing 0.12 M sodium citrate, an anti-coagulant. The citrated blood was centrifuged at 700 rpm for 10 minutes. The supernatant was removed and saved as the platelet rich plasma (PRP) fraction. The PRP was centrifuged at 10,000 rpm for 20 minutes. The supernatant was removed and saved as the platelet poor plasma (PPP) fraction. The pellet contained the platelets, which were washed by resuspending in 10 mM Tris-HCl pH 8.0 buffer and centrifuging at 10,000 rpm for 10 minutes. The isolated platelets were resuspended in buffer and used in experiments.\nAs discussed above, Furlan et al. reported that some peptidyl-pNA moieties, such as XLY-pNA and XVY-pNA, were not substrates for ADAMTS13. We prepared LVY-pNA and tested it for its ability to be cleaved by ADAMTS13. The results shown in FIG. 2 confirm the findings of Furlan et al., i.e., LVY-pNA was not cleaved by ADAMTS13.\nIn order to determine the effect of modifying the length of the peptide sequence conjugated to the AMC fluorochrome, normal PRP (20 μl) was incubated at 37° C. with a final concentration of 0.8 mM Suc-LLVY-AMC or LVY-AMC in 10 mM Tris-HCl pH 8.0 buffer in total volume of 200 μl. Fluorescence was measured using a microtiter fluorophotometric plate reader (Ex 360 nm/Em 460 nm)."}, "platelet ADAMTS13 [2]": {"test_system": "T1, platelet ADAMTS13", "T1 sequence": "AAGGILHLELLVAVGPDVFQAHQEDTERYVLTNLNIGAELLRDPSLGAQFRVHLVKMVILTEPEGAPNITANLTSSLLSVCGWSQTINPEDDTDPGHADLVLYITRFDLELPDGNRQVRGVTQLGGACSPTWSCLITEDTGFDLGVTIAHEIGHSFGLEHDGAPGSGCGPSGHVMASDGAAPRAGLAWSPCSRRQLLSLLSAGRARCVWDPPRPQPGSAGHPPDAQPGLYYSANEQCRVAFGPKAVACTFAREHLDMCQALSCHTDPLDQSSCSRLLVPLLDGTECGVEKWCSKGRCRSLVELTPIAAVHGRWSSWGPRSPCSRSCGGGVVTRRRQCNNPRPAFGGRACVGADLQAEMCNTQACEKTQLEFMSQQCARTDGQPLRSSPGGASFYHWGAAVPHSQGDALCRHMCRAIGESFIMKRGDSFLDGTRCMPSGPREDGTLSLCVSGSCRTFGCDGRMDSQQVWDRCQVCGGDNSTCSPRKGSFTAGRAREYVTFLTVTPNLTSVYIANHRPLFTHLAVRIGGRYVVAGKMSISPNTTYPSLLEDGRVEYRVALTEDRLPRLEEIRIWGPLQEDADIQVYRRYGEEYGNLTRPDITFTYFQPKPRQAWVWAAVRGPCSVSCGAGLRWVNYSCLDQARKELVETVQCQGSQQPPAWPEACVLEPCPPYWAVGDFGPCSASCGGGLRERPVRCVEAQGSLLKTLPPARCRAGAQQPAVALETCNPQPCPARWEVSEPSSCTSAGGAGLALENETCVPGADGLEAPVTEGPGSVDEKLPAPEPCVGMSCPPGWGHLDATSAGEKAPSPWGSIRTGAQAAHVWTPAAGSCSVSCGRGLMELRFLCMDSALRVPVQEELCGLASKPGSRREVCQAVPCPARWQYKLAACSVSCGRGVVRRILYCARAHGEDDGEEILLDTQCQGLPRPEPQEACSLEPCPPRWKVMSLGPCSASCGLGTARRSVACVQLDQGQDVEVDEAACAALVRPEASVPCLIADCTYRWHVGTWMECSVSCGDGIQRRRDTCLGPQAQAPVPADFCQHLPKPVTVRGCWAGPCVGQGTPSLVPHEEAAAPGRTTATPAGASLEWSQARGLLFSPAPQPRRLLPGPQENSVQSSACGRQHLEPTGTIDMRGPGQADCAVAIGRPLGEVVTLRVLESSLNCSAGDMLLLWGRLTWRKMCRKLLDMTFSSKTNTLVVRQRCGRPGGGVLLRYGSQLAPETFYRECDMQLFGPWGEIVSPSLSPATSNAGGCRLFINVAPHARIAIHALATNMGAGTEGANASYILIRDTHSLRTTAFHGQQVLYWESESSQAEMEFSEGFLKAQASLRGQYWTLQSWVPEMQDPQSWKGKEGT"}, "Leu-Val-Tyr-AMC": {"target": "T2, Leu-Val-Tyr-AMC", "T2 chain": "LVY"}, "[3]": {"target": "T3, NH2-Arg-Lys(DABCYL)-NLVYMVTGD(EDANS)-Arg-COOH", "T3 chain": "RKNLVYMVTGDR"}, "Suc-Leu-Leu-Val-Tyr-AMC": {"target": "T4, Suc-Leu-Leu-Val-Tyr-AMC", "T4 chain": "LLVY"}},
  "note": "Ends that are not written are not given here. * marks the point of attachment. AMC = Cc1cc(=O)oc2cc(N*)ccc12",
  "data": [
    {"molecule": "FXIa: activated Factor XI, plasma serine protease", "values": [
      {"measurement": "increase of ADAMTS13 activity towards LVY-AMC substrate upon treatment of platelets with FXIa", "setting": "platelet ADAMTS13 [1]; normal platelets, 1500 seconds", "result": "approximately 8 fold"},
      {"measurement": "enhancement of activity of platelets by treatment with FXIa", "setting": "platelet ADAMTS13 [1]; platelets from PRP of an acquired TTP patient, compared with normal individual", "result": "much lesser extent"}
    ]},
    {"molecule": "Leu-Val-Tyr-AMC (Leu-Val-Tyr-{AMC}) [LVY-AMC, fluorogenic peptidyl substrate from Bachem Bioscience Inc; also made by QPR]", "values": [
      {"measurement": "cleavage of peptidyl-AMC substrate by ADAMTS13 in PRP", "setting": "ADAMTS13", "result": "cleaved"}
    ]},
    {"molecule": "activated Factor XI", "values": [
      {"measurement": "ADAMTS13 activity towards LVY-AMC substrate", "setting": "platelet ADAMTS13 [2]", "result": "ADAMTS13 activity was significantly increased (by approximately 8-fold) towards LVY-AMC substrate upon treatment of platelets with FXIa"}
    ]},
    {"molecule": "platelet ADAMTS13 (protein) AAGGILHLELLVAVGPDVFQAHQEDTERYVLTNLNIGAELLRDPSLGAQFRVHLVKMVILTEPEGAPNITANLTSSLLSVCGWSQTINPEDDTDPGHADLVLYITRFDLELPDGNRQVRGVTQLGGACSPTWSCLITEDTGFDLGVTIAHEIGHSFGLEHDGAPGSGCGPSGHVMASDGAAPRAGLAWSPCSRRQLLSLLSAGRARCVWDPPRPQPGSAGHPPDAQPGLYYSANEQCRVAFGPKAVACTFAREHLDMCQALSCHTDPLDQSSCSRLLVPLLDGTECGVEKWCSKGRCRSLVELTPIAAVHGRWSSWGPRSPCSRSCGGGVVTRRRQCNNPRPAFGGRACVGADLQAEMCNTQACEKTQLEFMSQQCARTDGQPLRSSPGGASFYHWGAAVPHSQGDALCRHMCRAIGESFIMKRGDSFLDGTRCMPSGPREDGTLSLCVSGSCRTFGCDGRMDSQQVWDRCQVCGGDNSTCSPRKGSFTAGRAREYVTFLTVTPNLTSVYIANHRPLFTHLAVRIGGRYVVAGKMSISPNTTYPSLLEDGRVEYRVALTEDRLPRLEEIRIWGPLQEDADIQVYRRYGEEYGNLTRPDITFTYFQPKPRQAWVWAAVRGPCSVSCGAGLRWVNYSCLDQARKELVETVQCQGSQQPPAWPEACVLEPCPPYWAVGDFGPCSASCGGGLRERPVRCVEAQGSLLKTLPPARCRAGAQQPAVALETCNPQPCPARWEVSEPSSCTSAGGAGLALENETCVPGADGLEAPVTEGPGSVDEKLPAPEPCVGMSCPPGWGHLDATSAGEKAPSPWGSIRTGAQAAHVWTPAAGSCSVSCGRGLMELRFLCMDSALRVPVQEELCGLASKPGSRREVCQAVPCPARWQYKLAACSVSCGRGVVRRILYCARAHGEDDGEEILLDTQCQGLPRPEPQEACSLEPCPPRWKVMSLGPCSASCGLGTARRSVACVQLDQGQDVEVDEAACAALVRPEASVPCLIADCTYRWHVGTWMECSVSCGDGIQRRRDTCLGPQAQAPVPADFCQHLPKPVTVRGCWAGPCVGQGTPSLVPHEEAAAPGRTTATPAGASLEWSQARGLLFSPAPQPRRLLPGPQENSVQSSACGRQHLEPTGTIDMRGPGQADCAVAIGRPLGEVVTLRVLESSLNCSAGDMLLLWGRLTWRKMCRKLLDMTFSSKTNTLVVRQRCGRPGGGVLLRYGSQLAPETFYRECDMQLFGPWGEIVSPSLSPATSNAGGCRLFINVAPHARIAIHALATNMGAGTEGANASYILIRDTHSLRTTAFHGQQVLYWESESSQAEMEFSEGFLKAQASLRGQYWTLQSWVPEMQDPQSWKGKEGT", "values": [
      {"measurement": "fluorescence over time (LVY-AMC cleavage)", "setting": "Leu-Val-Tyr-AMC", "result": "the activity in platelets was due to ADAMTS13 cleaving the LVY-AMC substrate"},
      {"measurement": "fluorescence over time (FRET substrate cleavage)", "setting": "[3]", "result": "incubation of platelets with NH2-Arg-Lys(DABCYL)-NLVYMVTGD(EDANS)-Arg-COOH results in increased fluorescence over time"}
    ]},
    {"molecule": "recombinant ADAMTS13 (protein) AAGGILHLELLVAVGPDVFQAHQEDTERYVLTNLNIGAELLRDPSLGAQFRVHLVKMVILTEPEGAPNITANLTSSLLSVCGWSQTINPEDDTDPGHADLVLYITRFDLELPDGNRQVRGVTQLGGACSPTWSCLITEDTGFDLGVTIAHEIGHSFGLEHDGAPGSGCGPSGHVMASDGAAPRAGLAWSPCSRRQLLSLLSAGRARCVWDPPRPQPGSAGHPPDAQPGLYYSANEQCRVAFGPKAVACTFAREHLDMCQALSCHTDPLDQSSCSRLLVPLLDGTECGVEKWCSKGRCRSLVELTPIAAVHGRWSSWGPRSPCSRSCGGGVVTRRRQCNNPRPAFGGRACVGADLQAEMCNTQACEKTQLEFMSQQCARTDGQPLRSSPGGASFYHWGAAVPHSQGDALCRHMCRAIGESFIMKRGDSFLDGTRCMPSGPREDGTLSLCVSGSCRTFGCDGRMDSQQVWDRCQVCGGDNSTCSPRKGSFTAGRAREYVTFLTVTPNLTSVYIANHRPLFTHLAVRIGGRYVVAGKMSISPNTTYPSLLEDGRVEYRVALTEDRLPRLEEIRIWGPLQEDADIQVYRRYGEEYGNLTRPDITFTYFQPKPRQAWVWAAVRGPCSVSCGAGLRWVNYSCLDQARKELVETVQCQGSQQPPAWPEACVLEPCPPYWAVGDFGPCSASCGGGLRERPVRCVEAQGSLLKTLPPARCRAGAQQPAVALETCNPQPCPARWEVSEPSSCTSAGGAGLALENETCVPGADGLEAPVTEGPGSVDEKLPAPEPCVGMSCPPGWGHLDATSAGEKAPSPWGSIRTGAQAAHVWTPAAGSCSVSCGRGLMELRFLCMDSALRVPVQEELCGLASKPGSRREVCQAVPCPARWQYKLAACSVSCGRGVVRRILYCARAHGEDDGEEILLDTQCQGLPRPEPQEACSLEPCPPRWKVMSLGPCSASCGLGTARRSVACVQLDQGQDVEVDEAACAALVRPEASVPCLIADCTYRWHVGTWMECSVSCGDGIQRRRDTCLGPQAQAPVPADFCQHLPKPVTVRGCWAGPCVGQGTPSLVPHEEAAAPGRTTATPAGASLEWSQARGLLFSPAPQPRRLLPGPQENSVQSSACGRQHLEPTGTIDMRGPGQADCAVAIGRPLGEVVTLRVLESSLNCSAGDMLLLWGRLTWRKMCRKLLDMTFSSKTNTLVVRQRCGRPGGGVLLRYGSQLAPETFYRECDMQLFGPWGEIVSPSLSPATSNAGGCRLFINVAPHARIAIHALATNMGAGTEGANASYILIRDTHSLRTTAFHGQQVLYWESESSQAEMEFSEGFLKAQASLRGQYWTLQSWVPEMQDPQSWKGKEGT", "values": [
      {"measurement": "fluorescence signal (Suc-LLVY-AMC cleavage)", "setting": "Suc-Leu-Leu-Val-Tyr-AMC", "result": "a greater fluorescence signal was produced by the supernatant from transfected cells verses supernatant from mock transfected cells"}
    ]}
  ]
}
